Like-named read-outs stand apart in the source and are kept apart here. Where no end group is shown, it is not given here.
Experiments:
[1] = biological target: T1, EphA2 ligand binding domain (EphA2 LBD), residues 28-200 (UniProt P29317 28-200); assay: ITC, soluble EphA2 LBD and peptide
T1 construct: range 28-200; Expressed in E. coli; also called soluble EphA2 LBD; soluble monomeric EphA2 LBD
Procedure: (§1) For ITC, all peptides are dissolved in DMSO and both the EphA2 LBD and the peptides are diluted to obtain a final buffer containing 9.5 mM HEPES, pH 7.9, 95 mM NaCl, and 5% DMSO. The experiments are carried out at 296 K (23° C.) using an ITC200 calorimeter (Microcal). Two-microliter aliquots of a peptide solution are injected into the cell containing 205 μL EphA2 LBD. 200-400 μM peptides are titrated into 20-40 μM EphA2 LBD. Experimental data are analyzed using the Origin software package (Microcal). The integrated values for the reaction heats are normalized to the amount of injected peptide after blank subtraction.

[2] = biological target: T2, EphA2 extracellular domain fused to the Fc portion of an antibody (EphA2-Fc); assay: ELISA, inhibition of ephrinA5-AP binding to immobilized EphA2-Fc
T2 construct: extracellular domain; Immobilized on the ELISA wells; also called immobilized EphA2

[3] = biological target: T3, EphA2 endogenously expressed on PC3 prostate cancer cells (UniProt P29317 24-976, limits assumed); assay: cell-based or functional assay
[4] = biological target: T1, EphA2 ligand binding domain (EphA2 …); assay: ITC, soluble EphA2 LBD and peptide; remark: listed apart in the source
Procedure: as §1

[5] = biological target: T2, EphA2 extracellular domain fused to the …; assay: ELISA, inhibition of ephrinA5-AP binding to immobilized EphA2-Fc; representative experiment, triplicates
[6] = biological target: T2, EphA2 extracellular domain fused to the …; assay: ELISA, inhibition of ephrinA5-AP binding to immobilized EphA2-Fc; remark: listed apart in the source
[7] = biological target: T1, EphA2 ligand binding domain (EphA2 …); assay: ITC, EphA2 LBD (200-250 µM) titrated into 10-12.5 µM peptide; single titration shown
[8] = biological target: T1, EphA2 ligand binding domain (EphA2 …); assay: ITC, soluble EphA2 LBD and peptide; remark: listed apart in the source
[9] = biological target: T3, EphA2 endogenously expressed on PC3 …; assay: cell-based or functional assay; remark: listed apart in the source

T2 sequence (P29317 whole entry, the tested form may be a part): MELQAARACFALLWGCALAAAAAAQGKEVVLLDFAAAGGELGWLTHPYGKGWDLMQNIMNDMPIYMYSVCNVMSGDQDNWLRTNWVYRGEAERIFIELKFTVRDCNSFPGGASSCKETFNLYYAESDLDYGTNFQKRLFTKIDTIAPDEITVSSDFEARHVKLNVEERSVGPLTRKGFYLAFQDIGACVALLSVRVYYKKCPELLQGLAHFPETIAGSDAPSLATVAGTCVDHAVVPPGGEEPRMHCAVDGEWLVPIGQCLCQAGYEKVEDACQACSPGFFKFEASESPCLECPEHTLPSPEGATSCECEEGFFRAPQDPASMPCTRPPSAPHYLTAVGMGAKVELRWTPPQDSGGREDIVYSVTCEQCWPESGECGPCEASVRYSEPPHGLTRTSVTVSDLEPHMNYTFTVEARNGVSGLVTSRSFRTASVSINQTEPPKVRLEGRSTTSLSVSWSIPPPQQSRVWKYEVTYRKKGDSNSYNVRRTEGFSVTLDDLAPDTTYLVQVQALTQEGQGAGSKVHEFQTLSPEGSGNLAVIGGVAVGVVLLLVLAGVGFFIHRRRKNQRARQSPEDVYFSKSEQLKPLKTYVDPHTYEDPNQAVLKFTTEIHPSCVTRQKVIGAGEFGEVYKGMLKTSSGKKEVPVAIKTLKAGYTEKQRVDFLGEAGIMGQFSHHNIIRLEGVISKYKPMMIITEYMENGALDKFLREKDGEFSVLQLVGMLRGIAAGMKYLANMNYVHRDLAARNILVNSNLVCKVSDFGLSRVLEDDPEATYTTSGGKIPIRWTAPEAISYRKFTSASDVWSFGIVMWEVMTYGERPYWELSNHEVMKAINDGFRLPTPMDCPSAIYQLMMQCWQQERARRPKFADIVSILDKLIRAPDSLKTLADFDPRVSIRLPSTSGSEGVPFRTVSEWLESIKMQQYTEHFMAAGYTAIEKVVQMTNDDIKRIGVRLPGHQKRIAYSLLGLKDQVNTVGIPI
T1 sequence (P29317 other isoform, or with tags, fused parts or gaps limits assumed, form in doubt): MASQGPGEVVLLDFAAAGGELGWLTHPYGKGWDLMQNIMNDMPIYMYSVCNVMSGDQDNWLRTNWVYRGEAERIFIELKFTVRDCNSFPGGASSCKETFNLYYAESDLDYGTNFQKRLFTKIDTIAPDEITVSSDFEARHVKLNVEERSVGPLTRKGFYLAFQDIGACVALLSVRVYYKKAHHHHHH
T3 sequence (P29317 24-976 limits assumed): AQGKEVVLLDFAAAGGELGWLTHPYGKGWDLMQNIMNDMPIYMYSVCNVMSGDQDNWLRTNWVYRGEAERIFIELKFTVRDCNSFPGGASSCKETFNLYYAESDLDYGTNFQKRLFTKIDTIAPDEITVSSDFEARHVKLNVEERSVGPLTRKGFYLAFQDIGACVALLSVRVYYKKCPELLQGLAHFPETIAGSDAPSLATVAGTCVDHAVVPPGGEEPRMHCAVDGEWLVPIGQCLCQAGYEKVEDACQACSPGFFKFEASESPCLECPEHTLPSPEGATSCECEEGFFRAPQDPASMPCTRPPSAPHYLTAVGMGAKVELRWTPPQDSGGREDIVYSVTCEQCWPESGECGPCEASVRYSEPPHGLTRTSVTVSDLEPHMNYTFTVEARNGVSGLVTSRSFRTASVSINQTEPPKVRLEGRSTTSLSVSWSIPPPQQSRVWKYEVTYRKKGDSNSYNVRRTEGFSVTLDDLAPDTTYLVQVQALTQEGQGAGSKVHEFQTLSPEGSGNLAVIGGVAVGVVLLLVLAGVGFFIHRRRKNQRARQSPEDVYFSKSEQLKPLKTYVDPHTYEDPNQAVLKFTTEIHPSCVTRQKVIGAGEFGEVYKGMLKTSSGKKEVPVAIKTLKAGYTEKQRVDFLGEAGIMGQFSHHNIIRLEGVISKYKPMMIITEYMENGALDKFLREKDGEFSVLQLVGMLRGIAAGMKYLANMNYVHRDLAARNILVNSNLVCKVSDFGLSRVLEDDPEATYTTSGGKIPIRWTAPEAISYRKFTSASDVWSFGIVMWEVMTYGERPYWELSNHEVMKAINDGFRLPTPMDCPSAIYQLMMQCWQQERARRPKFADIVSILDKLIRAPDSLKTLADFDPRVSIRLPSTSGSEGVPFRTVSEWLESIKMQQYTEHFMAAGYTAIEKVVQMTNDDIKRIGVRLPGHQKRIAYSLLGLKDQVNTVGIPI

B1: CGA-WLA-YRPK dimer (N-ter) (peptide)
peptide: CGAWLAYPDSVPYRPK
modifications: also: N-terminally disulfide-linked homodimer, disulfide at 1, other end not in the chain
notes: also called dimer (5); dimeric peptide (5)
- Kd [1]: 21 nM
- N (binding stoichiometry) [1]: 2.2
- IC50 [2]: 0.66 nM
- EC50 pAKT inhib [3]: 90 pM
- Etop pAKT inhib [3]: 1
- Etop pY588 [3]: 0.87 normalized to ephrinA1-Fc
- βlig (bias factor) [3]: 0.66
- -TΔS [4]: 21.9 kcal/mol
- Kd [4]: 21 nM
- N (binding stoichiometry) [4]: 2.2
- ΔG [4]: -10.4 kcal/mol
- ΔH [4]: -32.3 kcal/mol
- IC50 [5]: 0.79 nM
- IC50 [6]: 0.65 nM
- Kd [7]: 18 nM
- Kd [8]: 380 nM
- N (binding stoichiometry) [8]: 2.2
- Blig (bias factor) [9]: 0.81
- EC50 PY588 [9]: 0.53 nM
- Emax PY588 [9]: 0.78 normalized to ephrinA1-Fc
- IC50 PAKT [9]: 0.068 nM
